Results on 2 molecules are retold here after publication PMC13317680, “Molecular architecture of the human citrate synthase–malate dehydrogenase 2 metabolon” (Acta Crystallographica Section D: Structural Biology, 2026).

In data set [1] the target is Human citrate synthase (human) (UniProt O75390).
Data set [2] has the same target. The experiment in a line: SEC-SAXS; glutaraldehyde cross-linked hMDH2-hCS; Shodex KW-803, 50 mM sodium phosphate pH 7, 100 mM NaCl, 2 mM DTT, 2% glycerol, 10°C; LightDock models fitted with FoXS.
Data set [3] concerns the molecule itself. The experiment in a line: SAXS (SEC-SAXS and HT-SAXS); hCS alone, 0.07-2.0 mg/ml in 50 mM Tris-HCl, 100 mM NaCl, 0.1 mM EDTA pH 7.5, 10°C; data compared with crystal structures and a normal-mode model (FoXS).

In the case of “Human mitochondrial malate dehydrogenase 2 (from UniProt P40926-1 25-338) (enzyme)”, the NADH production (A340), hMDH2 titrated into 2.5 µM hCS at hMDH2:hCS molar ratios 0:1 to 3:1; no saturation (hMDH2 dimer per hCS dimer) in data set [1] was > 1. Besides, the stoichiometry N (hMDH2 (dimer) per hCS (dimer)) in data set [2] was 2.

B1: Human citrate synthase (enzyme, UniProt O75390 28-466, looked up)
chain: ASSTNLKDILADLIPKEQARIKTFRQQHGKTVVGQITVDMMYGGMRGMKGLVYETSVLDPDEGIRFRGFSIPECQKLLPKAKGGEEPLPEGLFWLLVTGHIPTEEQVSWLSKEWAKRAALPSHVVTMLDNFPTNLHPMSQLSAAVTALNSESNFARAYAQGISRTKYWELIYEDSMDLIAKLPCVAAKIYRNLYREGSGIGAIDSNLDWSHNFTNMLGYTDHQFTELTRLYLTIHSDHEGGNVSAHTSHLVGSALSDPYLSFAAAMNGLAGPLHGLANQEVLVWLTQLQKEVGKDVSDEKLRDYIWNTLNSGRVVPGYGHAVLRKTDPRYTCQREFALKHLPNDPMFKLVAQLYKIVPNVLLEQGKAKNPWPNVDAHSGVLLQYYGMTEMNYYTVLFGVSRALGVLAQLIWSRALGFPLERPKSMSTEGLMKFVDSKSG
notes: Human citrate synthase, mitochondrial, UniProt O75390, amino acids 28-466; Dimer in solution by SAXS; PDB 5uzr was the starting model for the SAXS fit; also called hCS; CS; source: E. coli, purified (HisTrap nickel column, Sephacryl S200 SEC)
On to B1, for which, in data set [3], the “stoichiometry N” value turned out to be 2.
